Experimental data published in patent US8933202B2, “AXL antibodies” (U3 Pharma GmbH, priority 2007, dated 2015).

Key:
NIH3T3-pLXSN control = experiment: Primary FACS screen of hybridoma antibodies, binding to mock control cells
Procedure: Monoclonal rat anti-AXL antibodies were raised by injection of approximately 10×10^6 frozen cells of RatI-AXL cl.2 both i.p. and subcutaneously into Lou/C or Long Evans rats. After an 8-week interval, a final boost was given i.p and subcutaneously 3 d before fusion. Fusion of the myeloma cell line P3X63-Ag8.653 with the rat immune spleen cells was performed according to standard procedures and yielded 105 hybridomas. After 2 weeks, first supernatants from hybridomas were collected and tested in a primary FACS screen for binding to NIH3T3-AXL cl.7 fibroblasts versus NIH3T3-Mock control cells. Clones positive for AXL binding were further cultivated. From 50 ml supernatant of these clones, antibodies were purified and re-analyzed for specific binding to AXL on NIH3T3-AXL cl.7 fibroblasts versus NIH3T3-Mock control cells. Purified antibodies specifically binding to NIH3T3-AXL cl. 7 fibroblasts but not NIH3T3-Mock control cells were furthermore tested in Akt-Kinase phosphorylation ELISAs, and ELISAs to determine the isotype were performed. For purification of rat antibodies, supernatants were spun for 20 minutes at 5,000 g and subsequently sterile filtered. 500 μl of protein G sepharose FF were added and incubated at 4° C. for at least 1 h on a spinning wheel. […]

human AXL-ECD = molecular target: T1, human AXL-ECD (Homo sapiens, UniProt P30530); experiment: Competition ELISA on AXL-ECD coated plates; format: binding; settings: 10 μg/ml unbiotinylated, 0.5 μg/ml biotinylated antibody
T1 construct: purchased R&D Systems 154-AL
T1 sequence (P30530 26-451 limits assumed): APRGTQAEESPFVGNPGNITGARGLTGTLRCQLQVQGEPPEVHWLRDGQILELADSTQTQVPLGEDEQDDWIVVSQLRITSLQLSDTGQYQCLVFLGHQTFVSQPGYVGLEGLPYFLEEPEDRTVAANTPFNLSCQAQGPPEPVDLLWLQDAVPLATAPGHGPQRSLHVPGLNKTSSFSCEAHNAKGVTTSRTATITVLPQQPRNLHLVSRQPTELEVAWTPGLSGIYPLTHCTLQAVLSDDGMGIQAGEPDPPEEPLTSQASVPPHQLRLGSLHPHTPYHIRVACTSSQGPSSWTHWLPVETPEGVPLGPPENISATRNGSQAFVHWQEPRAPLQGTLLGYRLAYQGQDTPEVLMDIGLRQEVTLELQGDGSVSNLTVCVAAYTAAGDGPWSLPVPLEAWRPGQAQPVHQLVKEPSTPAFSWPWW
Procedure: Therefore binding of biotinylated anti-AXL antibodies to AXL-ECD domain-coated plates preincubated with anti-AXL antibodies was determined in a competition ELISA. […] On day 1, black 96 well Maxi-Sorp plates (Nunc) were coated with 100 μl/well of 1 μg/ml human AXL-ECD (R&D Systems #154-AL) in PBS over night at 4° C. […] After washing 6× with wash buffer (PBS, 0.1% TWEEN-20), 80 μl/well AP-conjugated Streptavidin (Chemicon #SA110) diluted 1:4,000 in blocking buffer were added, incubated for 20 min at room temperature washed again 6× with wash buffer and finally washed once with PBS. For detection, 100 μl/well Attophos substrate solution (Roche #11681982) were added. Using a Victor plate reader (Perkin Elmer), the fluorescence of each well was collected at an excitation wavelength of 430 nm an emission wavelength of 580 nm.

AXL = molecular target: T2, AXL (Homo sapiens, UniProt P30530); experiment: AXL receptor tyrosine phosphorylation ELISA; format: cell-based; design: expressed in transfected cells; host or cells: NIH3T3-AXL cl.7 (pLXSN-hAXL) and NCI-H292 lung cancer cells (endogenous AXL); settings: 10 μg/ml antibody, 400 ng/ml Gas6; NIH3T3-AXL cl.7 fibroblasts and NCI-H292 lung cancer cells
T2 sequence (P30530 26-894): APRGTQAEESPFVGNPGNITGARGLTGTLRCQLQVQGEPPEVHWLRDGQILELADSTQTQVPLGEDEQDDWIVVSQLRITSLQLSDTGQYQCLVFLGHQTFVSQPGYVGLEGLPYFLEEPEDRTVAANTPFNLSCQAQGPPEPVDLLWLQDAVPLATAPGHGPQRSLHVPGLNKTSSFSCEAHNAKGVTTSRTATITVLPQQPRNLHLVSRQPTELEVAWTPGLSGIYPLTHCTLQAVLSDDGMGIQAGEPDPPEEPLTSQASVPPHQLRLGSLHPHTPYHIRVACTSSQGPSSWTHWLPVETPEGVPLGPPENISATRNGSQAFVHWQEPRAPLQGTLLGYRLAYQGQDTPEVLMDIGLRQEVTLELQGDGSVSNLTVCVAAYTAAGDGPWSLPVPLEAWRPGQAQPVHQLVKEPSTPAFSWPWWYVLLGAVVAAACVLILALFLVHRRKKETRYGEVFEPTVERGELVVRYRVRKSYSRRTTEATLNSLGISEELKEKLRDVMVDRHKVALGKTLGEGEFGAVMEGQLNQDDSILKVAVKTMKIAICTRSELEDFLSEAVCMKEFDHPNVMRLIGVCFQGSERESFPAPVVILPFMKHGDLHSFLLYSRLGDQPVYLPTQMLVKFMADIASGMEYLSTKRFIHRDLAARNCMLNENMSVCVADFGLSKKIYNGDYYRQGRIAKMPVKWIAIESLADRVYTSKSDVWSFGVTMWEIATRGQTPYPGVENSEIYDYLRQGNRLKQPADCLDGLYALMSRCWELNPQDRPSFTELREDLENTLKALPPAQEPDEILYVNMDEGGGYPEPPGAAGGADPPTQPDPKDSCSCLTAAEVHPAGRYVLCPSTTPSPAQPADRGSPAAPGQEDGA
Procedure: ELISA experiments were performed in order to investigate whether the rat anti-AXL antibodies of the invention are able to block ligand Gash-mediated activation of AXL. Gas6-mediated AXL activation was detected by increased receptor tyrosine phosphorylation. In brief, on day 1, 3×10^4 cells per well were seeded in normal growth medium in flat-bottom 96 well plates. The next day, growth medium was replaced by serum-free medium to starve cells over night for 24 h. Also over night, black Maxi-Sorp 96 well plates (Nunc) were coated with mouse anti-phospho-tyrosine antibody 4G10 at 2 μg/ml PBS and 4° C. On day 3, the 4G10 antibody solution was removed and Maxi-Sorp wells were blocked with PBS, 0.5% BSA for at lest 4 h at room temperature. […] Medium was then flicked out and cells were lysed in lysis buffer (50 mM HEPES, pH 7.5, 150 mM NaCl, 1 mM EDTA, 10% glycerine, and 1% Triton X-100) supplemented with phosphatase and protease inhibitors (10 mM Na4P2O7, 1 mM phenylmethylsulfonyl fluoride, 1 mM orthovanadate, 1 mM NaF, and 0.5% aprotinin) for 30 min on ice. […] Using a Victor plate reader (Perkin Elmer), the fluorescence of each well was collected at an excitation wavelength of 430 nm and an emission wavelength of 580 nm.

[1] = tested on: NCI-H292 lung cancer cells; experiment: Wound healing/scratch assay; format: cell-based, human; settings: 10 μg/ml antibody, 24 h, compared to isotypic control antibody
Excerpt: To examine the migration and proliferation rates of different cells and culture conditions, in vitro wound healing/scratch assays are being employed for many years. These assays generally involve growing a confluent cell monolayer first. A small area is then disrupted and a group of cells are being destroyed or displaced by scratching a line through the layer with, for example, a pipette tip. The open gap is then inspected microscopically over time as the cells move in and fill the damaged area (“healing”). In brief, 1.5×10^6 NCI-H292 lung cancer cells were seeded per well of a 12 well dish and cultured in normal growth medium (RPMI, 10% FCS). After 8 h, cells were rinsed with PBS and starved in low serum medium (RPMI, 0.5% FCS) over night for 24 h. Using a sterile 200 μl pipette tip, three separate uniform wounds per well were scratched through the confluent NCI-H292 cell monolayers. […] Cells were permitted to migrate into the area of clearing for 24 h, washed once with PBS and fixed with ice cold Methanol (100%) at −20° C. After cells were stained with crystal violet (0.5% in 20% Methanol), rinsed with water and dried over night, photos of the wounds were taken.

B1: 10D12: antagonistic rat anti-AXL monoclonal antibody (antibody, V domains shown)
VL: DIQMTQAPSSLPASLGDRVTIACRASQDIGNYLRWFQQKPGKSPRLMISGATNLAAGVPSRFSGSRSGSDYSRTISSLESEDMADYYCLQSKESPWTFGGGTKLELK
VH: EVQLQESGPGLVKPSQSLSLTCSVTGYSITSNYWGWIRKFPGNKMEWMGYITNSGGTAYNPSLKSRISITRDTSKNQFFLQLNSVIPEDSATYFCSRTPWDWGQGVMVTVSS
For B1, the “FACS shift NIH3T3-pLXSN control” value (NIH3T3-pLXSN control) was 0.5, the “competition with antagonistic anti-AXL antibodies for binding to AXL-ECD” value (human AXL-ECD) was “compete with each other for the same or structurally adjacent epitopes” and the “ligand-mediated AXL activation (phosphorylation)” value (AXL) was “able to block or reduce ligand-mediated AXL activation”. For the same molecule, the “re-population of the cleared area (wound closure)” value [1] was “reduced the re-population of the cleared area”.
